Measurements: article PMC11367474, “Two-metal ion mechanism of DNA cleavage by activated, filamentous SgrAI”
Substitutions are numbered along the chain they refer to.

How the values were obtained:
SgrAI K242A = target: T1, SgrAI K242A (UniProt Q9F6L0 1-339, K242A;L336K); test: cryo-EM structure (3.3 A); Mg2+ in sites A and B; filament; DNA uncleaved; 30 min at room temperature; Cryo-EM samples: buffer containing MgCl2, room temperature (30 min for K242A, 1.5 h for WT); full buffer, salt and pH not in the material; settings: protein: recombinant; tags: His tag implied (HisTrap purification); chain copies: 2; blunt
T1 sequence: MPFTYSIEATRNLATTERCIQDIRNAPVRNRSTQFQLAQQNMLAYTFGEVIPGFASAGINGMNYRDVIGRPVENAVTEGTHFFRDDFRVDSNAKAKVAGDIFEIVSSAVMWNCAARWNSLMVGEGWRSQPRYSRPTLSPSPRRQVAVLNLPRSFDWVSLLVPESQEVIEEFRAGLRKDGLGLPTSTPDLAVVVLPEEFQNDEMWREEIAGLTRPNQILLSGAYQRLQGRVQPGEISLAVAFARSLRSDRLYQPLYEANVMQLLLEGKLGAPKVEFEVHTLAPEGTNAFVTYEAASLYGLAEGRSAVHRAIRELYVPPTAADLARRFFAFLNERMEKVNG

SgrAI WT = target: T2, SgrAI WT (UniProt Q9F6L0 1-339); test: cryo-EM structure (3.1 A); Mg2+ in sites A and B; filament; DNA cleaved at the scissile phosphate during 1.5 h incubation (product complex); Cryo-EM samples: buffer containing MgCl2, room temperature (30 min for K242A, 1.5 h for WT); full buffer, salt and pH not in the material; settings: protein: recombinant; tags: His tag implied (HisTrap purification); chain copies: 2; blunt
T2 sequence: T1 sequence with A242K, K336L

B1: 40-1 (dsDNA)
DNA 1: GATGCGTGGGTCTTCACACCGGTGGATGCGTGGGTCTTCA
DNA 2: TGAAGACCCACGCATCCACCGGTGTGAAGACCCACGCATC
SgrAI K242A
  binding result: binds
SgrAI WT
  binding result: binds
